Test results as given in patent US20230365647A1 (published 2023).

T1: Mannose receptor C type 1 on human monocyte-derived dendritic cells (Homo sapiens, UniProt P22897 19-1456)
T1 construct: also called MRC-1
T1 sequence: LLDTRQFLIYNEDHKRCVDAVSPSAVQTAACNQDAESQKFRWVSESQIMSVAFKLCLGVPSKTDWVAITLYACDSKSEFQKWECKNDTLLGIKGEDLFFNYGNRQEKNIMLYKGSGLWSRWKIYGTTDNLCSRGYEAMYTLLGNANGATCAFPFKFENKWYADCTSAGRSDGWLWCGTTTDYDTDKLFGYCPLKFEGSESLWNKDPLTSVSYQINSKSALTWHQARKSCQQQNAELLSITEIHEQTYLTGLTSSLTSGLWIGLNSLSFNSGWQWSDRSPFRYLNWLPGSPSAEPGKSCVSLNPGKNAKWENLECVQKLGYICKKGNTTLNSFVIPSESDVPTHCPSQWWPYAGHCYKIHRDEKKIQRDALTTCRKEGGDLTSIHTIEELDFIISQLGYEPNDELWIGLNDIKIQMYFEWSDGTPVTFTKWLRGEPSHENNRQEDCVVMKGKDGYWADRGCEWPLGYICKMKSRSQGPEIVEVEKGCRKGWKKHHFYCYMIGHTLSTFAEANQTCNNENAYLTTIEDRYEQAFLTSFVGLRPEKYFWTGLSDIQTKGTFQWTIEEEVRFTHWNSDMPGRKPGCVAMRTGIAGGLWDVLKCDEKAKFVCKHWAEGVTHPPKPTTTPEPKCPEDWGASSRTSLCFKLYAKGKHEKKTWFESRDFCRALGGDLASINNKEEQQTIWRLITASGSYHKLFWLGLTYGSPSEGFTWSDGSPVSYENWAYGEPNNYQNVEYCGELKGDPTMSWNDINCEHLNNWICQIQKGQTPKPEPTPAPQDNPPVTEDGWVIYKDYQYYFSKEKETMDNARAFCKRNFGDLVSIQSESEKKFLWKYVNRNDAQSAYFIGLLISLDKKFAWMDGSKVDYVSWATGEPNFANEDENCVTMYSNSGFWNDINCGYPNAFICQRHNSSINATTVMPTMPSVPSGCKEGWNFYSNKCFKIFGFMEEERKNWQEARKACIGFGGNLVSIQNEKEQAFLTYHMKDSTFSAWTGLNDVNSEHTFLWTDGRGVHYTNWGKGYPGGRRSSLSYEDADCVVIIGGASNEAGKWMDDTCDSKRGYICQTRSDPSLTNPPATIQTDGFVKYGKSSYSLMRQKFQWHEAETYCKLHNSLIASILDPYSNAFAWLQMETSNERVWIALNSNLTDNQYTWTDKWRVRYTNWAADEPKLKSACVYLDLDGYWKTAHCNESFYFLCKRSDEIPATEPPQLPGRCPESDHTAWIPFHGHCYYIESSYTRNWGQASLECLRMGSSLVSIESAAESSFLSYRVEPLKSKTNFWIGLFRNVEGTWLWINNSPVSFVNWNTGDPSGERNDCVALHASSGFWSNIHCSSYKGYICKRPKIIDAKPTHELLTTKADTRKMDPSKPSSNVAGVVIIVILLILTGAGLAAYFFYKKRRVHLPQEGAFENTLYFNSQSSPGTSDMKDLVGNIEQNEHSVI

B1: LLO (W489F) toxoid (other)
chain: KDASAFNKENSISSMAPPASPPASPKTPIEKKHADEIDKYIQGLDYNKNNVLVYHGDAVTNVPPRKGYKDGNEYIVVEKKKKSINQNNADIQVVNAISSLTYPGALVKANSELVENQPDVLPVKRDSLTLSIDLPGMTNQDNKIVVKNATKSNVNNAVNTLVERWNEKYAQAYPNVSAKIDYDDEMAYSESQLIAKFGTAFKAVNNSLNVNFGAISEGKMQEEVISFKQIYYNVNVNEPTRPSRFFGKAVTKEQLQALGVNAENPPAYISSVAYGRQVYLKLSTNSHSTKVKAAFDAAVSGKSVSGDVELTNIIKNSSFKAVIYGGSAKDEVQIIDGNLGDLRDILKKGATFNRETPGVPIAYTTNFLKDNELAVIKNNSEYIETTSKAYTDGKINIDHSGGYVAQFNISWDEINYDPEGNEIVQHKNWSENNKSKLAHFTSSIYLPGNARNINVYAKECTGLAFEWWRTVIDDRNLPLVKNRNISIWGTTLYPKYSNSVDNPIE
B2: Pneumolysin (purified recombinant) (other)
chain: ANKAVNDFILAMNYDKKKLLTHQGESIENRFIKEGNQLPDEFVVIERKKRSLSTNTSDISVTATNDSRLYPGALLVVDETLLENNPTLLAVDRAPMTYSIDLPGLASSDSFLQVEDPSNSSVRGAVNDLLAKWHQDYGQVNNVPARMQYEKITAHSMEQLKVKFGSDFEKTGNSLDIDFNSVHSGEKQIQIVNFKQIYYTVSVDAVKNPGDVFQDTVTVEDLKQRGISAERPLVYISSVAYGRQVYLKLETTSKSDEVEAAFEALIKGVKVAPQTEWKQILDNTEVKAVILGGDPSSGARVVTGKVDMVEDLIQEGSRFTADHPGLPISYTTSFLRDNVVATFQNSTDYVETKVTAYRNGDLLLDHSGAYVAQYYITWNELSYDHQGKEVLTPKAWDRNGQDLTAHFTTSIPLKGNVRNLSVKIRECTGLAWEWWRTVYEKTDLPLVRKRTISIWGTTLYPQVEDKVEND
notes: also called PLY; Ply

Molecular target: T1, Mannose receptor C type 1 on human …
Test: immunofluorescence co-localization in human DCs

Row | Binder | binding result
1 | B1 | no binding (tested: 0.2 µg/ml)
2 | B2 | binds
